According to PMC7530888 (Nucleic Acids Research, 2020):

How the values were obtained:
Test in all cases: SPR
MtbLigA^G614I = MtbLigA^G614I (M. tuberculosis, UniProt P9WNV1 1-691, G614I)
MtbLigA^G621I = MtbLigA^G621I (M. tuberculosis, UniProt P9WNV1 1-691, G621I)
MtbLigA^G639V = MtbLigA^G639V (M. tuberculosis, UniProt P9WNV1 1-691, G639V)
[1] = biological target: Full-length His-tagged MtbLigA (M. tuberculosis, UniProt P9WNV1 1-691)

B1: GST-tagged MtbXthA (enzyme)
chain: MPDGTIDGGHPQRPASPRLRSPLLRLATWNVNSIRTRLDRVLDWLGRADVDVLAMQETKCPDGQFPALPLFELGYDVAHVGFDQWNGVAIASRVGLDDVRVGFDGQPSWSGKPEVAATTEARALGATCGGIRVWSLYVPNGRALDDPHYTYKLDWLAALRDTAEGWLRDDPAAPIALMGDWNIAPTDDDVWSTEFFAGCTHVSEPERKAFNAIVDAQFTDVVRPFTPGPGVYTYWDYTQLRFPKKQGMRIDFILGSPALAARVMDAQIVREERKGKAPSDHAPVLVDLHAG
Kd (MtbLigA^G614I): 781 nM
Kd (MtbLigA^G621I): 154 nM
Kd (MtbLigA^G639V): 2770 nM

B2: GST-tagged MtbXthA^ID (interaction-defective triple mutant) (enzyme)
chain: MPDGTIDGGHPQRPASPRLRSPLLRLATWNVNSIRTRLDRVLDWLGRADVDVLAMQETKCPDGQFPALPLFELGYDVAHVGFDQWNGVAIASRVGLDDVRVGFDGQPSWALAPEVAATTEARALGATCGGIRVWSLYVPNGRALDDPHYTYKLDWLAALRDTAEGWLRDDPAAPIALMGDWNIAPTDDDVWSTEFFAGCTHVSEPERKAFNAIVDAQFTDVVRPFTPGPGVYTYWDYTQLRFPKKQGMRIDFILGSPALAARVMDAQIVREERKGKAPSDHAPVLVDLHAG
Kd (MtbLigA^G639V): 9010 nM
Kd [1]: 613 nM
